Reference: publication doi:10.1101/2023.07.25.550481

Molecular target: T1, ZBTB48 ZnF10-11-C (Homo sapiens, UniProt P10074 548-620)
T1 sequence: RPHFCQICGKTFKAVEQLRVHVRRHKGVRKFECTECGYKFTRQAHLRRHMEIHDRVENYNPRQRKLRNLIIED
Assay: crystal structure

B1: CIITA e.2 crystal duplex (dsDNA)
DNA 1: CACAAGTGAGGGATCA
DNA 2: GTGATCCCTCACTTGT
B1: binds.
